For five molecules, OD450 nm results are on record in US20210070875A1.

Some targets named below: C5aR polypeptide-03 (UniProt P21730); C5aR polypeptide-05 (UniProt P21730); C5aR polypeptide-04 (UniProt P21730).
What all share (experiment): ELISA, polypeptide coated at 1.0 µg/mL
The target of experiment [1] is C5aR extracellular N-terminus polypeptide (UniProt P21730).

B1: 8B5D1A9 (antibody, V domains shown)
VH: QVQLKQSGAELVKPGASVKISCKTSGYIFTDYYINWMKQRPGQGLEWIGKIGPGSGTTFYNEKFKGKATLTADKSSTTLYMQLSSLTAEDSAVYFCTRRGYYSSSYFYWGQGTTLTVSS
VL: DIVMTQSPSSLSVSAGEKVIMSCKSSQSLLNSERQKNYLAWYQQKPGQSPKLLIYGASTRESGVPDRFTGSGSGTDFTLTISSVQAEDLAVYYCLNDHSYPLTFGAGTKLELK
As to B1, the OD450 nm is 0.05 OD450 nm with C5aR polypeptide-03, 2.5 OD450 nm in experiment [1], 0.08 OD450 nm with C5aR polypeptide-05 and 0.1 OD450 nm with C5aR polypeptide-04.

B2: 2A12B2B2 (antibody, V domains shown)
VH: QVQLQQPGADLVKPGASVKMSCKASGYILTTYWITWVKQRPGQGLEWIGDIHPGSGSTKYNEKFKSKATLTVDTSSSTAYMQLTRLSSEDSAVYYCARRDYWGQGTTLTVSS
VL: DIQMTQTTSSLSASLGDKVTISCRASQDISNYLSWYQQKPDGTVKLLIYWISRLHSGVPSRFSGSGSGTDFSLTISNLEQEDIATYFCQQGNSLPPTFGGGTKLEVK
Turning to B2, the OD450 nm stood at 0.06 OD450 nm with C5aR polypeptide-03, 0.05 OD450 nm in experiment [1], 0.29 OD450 nm in the experiment with C5aR polypeptide-05 and 2.34 OD450 nm in the experiment with C5aR polypeptide-04.

B3: 43E8F5B6 (antibody, V domains shown)
VH: EVQLQQSGPELVKPGASVKISCKASGYTFTDYYMSWMKQSHGKSLEWIGDINPNNGDNIYNQKFKGKATLTVDRSSSTAYMDLRSLTSEDSAVYYCARWYYYVSSFSYWYFDVWGTGTTVTVSS
VL: EIVLTQSPTTMAASPGEKITITCSATSSINSNYLHWYQQKPGFSPKLLIYRTSNLASGVPARFSGSGSGTSYSLTIGTMEAEDVATYYCQQGRTIPRTFGSGTKLEIK
Turning to B3, the OD450 nm was 0.08 OD450 nm with C5aR polypeptide-03, 0.12 OD450 nm in experiment [1], 0.06 OD450 nm with C5aR polypeptide-05 and 0.1 OD450 nm with C5aR polypeptide-04.

B4: 5F8E2C11 (antibody, V domains shown)
VH: QVQLRQSGPGLVQPSQSLSITCTVSGFSLTSYGVHWVRQSPGKGLEWLGVIWSGGSTDYNAAFISRLSISKDYSKSQIFLTMNSLQTDDTAIYYCARNSRLGNCFDYWGQGTTLTVSS
VL: DIVMSQSPSSLAVSAGEKVTMSCKSSQSLLNSRTRKNYLAWYQQKPGQSPKLLIYWASTRESGVPDRFTGSGSGTDFTLTISSVQAEDLAVYYCKQSYNLPAFGGGTKLEIK
Turning to B4, the OD450 nm with C5aR polypeptide-03 came to 0.31 OD450 nm; in experiment [1] it was 0.22 OD450 nm; in the experiment with C5aR polypeptide-05 it was 0.56 OD450 nm; in the experiment with C5aR polypeptide-04 it was 2.52 OD450 nm.

B5: 9D5A12G7 (antibody, V domains shown)
VH: QVQLKQSGPGLVQPSQSLSITCTVSGFSLTSYGVHWVRQSPGKGLEWLGVIWSGGSTDYNAAFISRLSISKDNSKSQVFFKMNSLQADDTAIYYCARNGLLGNAMDYWGQGTSVTVSS
VL: DIVMSQSPSSLAVSAGEKVTMSCKSSQSLLSSRTRKNYLAWYQQKPGQSPKLLIYWASTRESGVPDRFTGSGSGTDFTLTISSVQTEDLAVYYCKQSYNLLTFGAGTTLELK
With B5, the OD450 nm worked out at 0.06 OD450 nm with C5aR polypeptide-03, 0.06 OD450 nm in experiment [1], 0.41 OD450 nm with C5aR polypeptide-05 and 2.46 OD450 nm in the experiment with C5aR polypeptide-04.
